Consider eight molecules from US20250250357A1 (NANJING ZAIMING PHARMACEUTICAL, published 2025).

The target of experiment [1] is T1, human MSLN-R2-his protein (human, UniProt Q13421 391-486).
T1 construct: it is put last here; also called human MSLN-R2 protein; hMSLN-R2-his; not shown: His tag
Nature of the experiment: ELISA on coated antigen, antibody 20 nM.

Experiment [2] has as its target T1, human MSLN-R2-his protein. Nature of the experiment: ELISA on coated antigen, antibody 0.02 nM.
Description: (§1) The plate was sealed with a plastic film and incubated at 4° C. overnight. The next day, the plate was washed twice with PBST, and a blocking buffer [PBS+2% (w/w) BSA] was added for blocking at room temperature for 2 h. The blocking buffer was discarded, and a chimeric antibody or negative control antibody serially diluted from 100 nM was added at 50 μL/well. After incubation at 37° C. for 2 h, the plate was washed 3 times with PBST. […] After incubation at 37° C. for 2 h, the plate was washed 5 times with PBST. A TMB substrate was added at 50 μL/well for incubation at room temperature for 5-10 min, and then a stop solution (1.0 N HCl) was added at 50 μL/well.
The target of experiment [3] is T1, human MSLN-R2-his protein. The experiment is described as follows: ELISA on coated antigen, antibody 0.2 nM.
Description: as §1
In experiment [4] the target is T1, human MSLN-R2-his protein. The experiment is described as follows: ELISA on coated antigen, antibody 0.002 nM.
Description: as §1
Experiment [5] has as its target T2, human MSLN-R3-his protein (human, UniProt Q13421 487-598).
T2 construct: it is put last here; also called human MSLN-R3 protein; hMSLN-R3-his; not shown: His tag
Nature of the experiment: ELISA on coated antigen, antibody 200 nM.

In experiment [6] the target is T1, human MSLN-R2-his protein. The experiment is described as follows: ELISA on coated antigen, antibody 2 nM.
Description: as §1
Experiment [7] has as its target T2, human MSLN-R3-his protein. Nature of the experiment: ELISA on coated antigen, no antibody (blank, column 'none').
Description: as §1
For experiment [8], the target named is T2, human MSLN-R3-his protein. Nature of the experiment: ELISA on coated antigen, antibody 0.002 nM.
Description: as §1
Experiment [9] deals with T1, human MSLN-R2-his protein. Nature of the experiment: ELISA on coated antigen, antibody 200 nM.
Description: as §1
Experiment [10] addresses T2, human MSLN-R3-his protein. The experiment is described as follows: ELISA on coated antigen, antibody 0.0002 nM.
Description: as §1
Experiment [11] deals with T2, human MSLN-R3-his protein. Nature of the experiment: ELISA on coated antigen, antibody 0.02 nM.
Description: as §1
Experiment [12] addresses T1, human MSLN-R2-his protein. The experiment is described as follows: ELISA on coated antigen, no antibody (blank, column 'none').
Description: as §1
The target in experiment [13] is T1, human MSLN-R2-his protein. Nature of the experiment: ELISA on coated antigen, antibody 0.0002 nM.
Description: as §1
Experiment [14] has as its target T2, human MSLN-R3-his protein. Nature of the experiment: ELISA on coated antigen, antibody 0.2 nM.
Description: as §1
The target of experiment [15] is T2, human MSLN-R3-his protein. Nature of the experiment: ELISA on coated antigen, antibody 2 nM.
Description: as §1
The target of experiment [16] is T2, human MSLN-R3-his protein. Nature of the experiment: ELISA on coated antigen, antibody 20 nM.
Description: as §1

T2 sequence (Q13421 495-606): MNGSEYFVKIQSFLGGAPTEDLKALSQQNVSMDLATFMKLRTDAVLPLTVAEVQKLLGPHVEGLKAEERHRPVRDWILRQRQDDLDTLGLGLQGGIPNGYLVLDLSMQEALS
T1 sequence (Q13421 other isoform, or with tags, fused parts or gaps): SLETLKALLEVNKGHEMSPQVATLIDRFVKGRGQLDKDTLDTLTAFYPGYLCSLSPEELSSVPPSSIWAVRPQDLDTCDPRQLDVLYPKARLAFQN

B1: S009-F7.53.2 (antibody, human IgG1, kappa, V domains shown)
VH: EVQLQQSGPELVKPGASVKIPCKTSGYTFTDYNMDWVKQSHGKSLEWIGDINPNTDGAIYNQKFQNKATLTVDKSSSTAYMELRSLTSEDTAVYYCTRRKLGRKFFDYWGQGTTLTVSS
VL: QIVLTQSPAIMSASPGEQVTMTCSASSSVGYMNWYQQKPGSSPRLLIYDTSNLASGVPVHFSGSGSGTSYSLTISRMEAAFAATYYCQQWYVYPYTFGGGTKLEIKR
notes: Human-murine chimeric antibody, human IgG1 heavy and kappa light constant regions
With B1, the OD450 is 0.06 OD in [1]; 0.05 OD in [2]; 0.05 OD in experiment [3]; 0.05 OD in [4]; 2.69 OD in [5]; 0.05 OD in [6]. Besides, the OD450 in experiment [7] came to 0.06 OD; in experiment [8], 0.06 OD; in experiment [9] it was 0.08 OD; in experiment [10] it was 0.05 OD; in [11], 0.14 OD; in [12], 0.07 OD. Further, the OD450 in experiment [13] stood at 0.05 OD; in experiment [14], 0.5 OD; in experiment [15] it was 1.71 OD; in [16] it was 2.42 OD.

B2: S009-F7.41.18 (antibody, human IgG1, kappa, V domains shown)
VH: QVQLQQPGTELVKPGASVKLSCKASDYTFTSYWMHWVKQRPGQGLEWIGSINPSNGDTYYNEKFKNKATLTVDKSSSTAYMQLSSLTSDDSAVYYCARGWYFDVWGTGTTVTVSS
VL: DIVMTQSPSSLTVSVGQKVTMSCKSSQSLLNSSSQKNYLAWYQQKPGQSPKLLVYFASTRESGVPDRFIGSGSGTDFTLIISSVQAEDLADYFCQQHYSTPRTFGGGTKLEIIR
notes: as for B1
For the molecule B2, the OD450 in experiment [1] amounted to 0.12 OD; in experiment [2], 0.07 OD; in experiment [3] it was 0.07 OD; in [4], 0.07 OD; in experiment [5] it was 3 OD; in experiment [6] it was 0.11 OD. The OD450 in experiment [7] was determined as 0.06 OD; in experiment [8] it was 0.12 OD; in experiment [9], 0.15 OD; in experiment [10], 0.07 OD; in [11] it was 0.69 OD; in experiment [12], 0.08 OD. In addition, the OD450 in experiment [13] is 0.07 OD; in experiment [14], 1.92 OD; in experiment [15], 2.43 OD; in experiment [16] it was 2.46 OD.

B3: S009-F7.30.5 (antibody, human IgG1, kappa, V domains shown)
VH: QVQLQQPKTELVKPGASVKLSCKASGYIFTTYWMHWVKQRPGQGLEWIGNVNPSNGGTMYNEKFERRATLTVDKSSSTADMQLSSLTSEDSAVYYCVPHYIGSRPGFAYWGQGTLVTVSG
VL: DIVMTQSQKFMSTSVGDRVSVTCKASQNVGTNVAWYQHKPGQSPKALLYSASYRYSGVPDRFTGSGSGTDFTLTITNVQSEDLAEYFCQQYNSYPLTFGGGTKLEIKR
notes: as for B1
Take B3: the OD450 stood at 0.15 OD in experiment [1]; 0.05 OD in experiment [2]; 0.06 OD in [3]; 0.05 OD in experiment [4]; 2.71 OD in [5]; 0.06 OD in experiment [6]. Also, the OD450 in experiment [7] turned out to be 0.09 OD; in experiment [8] it was 0.74 OD; in experiment [9] it was 0.5 OD; in experiment [10], 0.25 OD; in experiment [11], 1.7 OD; in experiment [12], 0.06 OD. Besides, the OD450 was 0.05 OD in experiment [13], 2.66 OD in [14], 2.75 OD in [15] and 2.84 OD in experiment [16].

B4: S009-F7.33.24 (antibody, human IgG1, kappa, V domains shown)
VH: QVQLQQPGTELVKPGASVKLSCKASGYTFTSYWMHWVKQRPGQGLEWIGNVNPSNGGSNYNEKFKNKATLTVDKSSSTADMQLNSLTSEDSAVYYCAPHYIGSRPGFAYWGQGTLVTVSG
VL: DIVMTQSQKFMSTSVGDRVSVTCKASQNVGTNIAWYQQKPGQSPKALIYSASYRYSGVPDRFTGSGSGTDFTLTITNVQSEDLAEYFCQQYNSYPLTFGGGTKVEIKR
notes: as for B1
As for B4, the OD450 in experiment [1] is 0.04 OD; in experiment [2], 0.06 OD; in experiment [3], 0.06 OD; in experiment [4] it was 0.06 OD; in experiment [5] it was 2.84 OD; in experiment [6], 0.06 OD. Besides, the OD450 in experiment [7] was 0.08 OD; in experiment [8], 1.04 OD; in [9], 0.08 OD; in [10], 0.23 OD; in experiment [11], 2.13 OD; in experiment [12], 0.07 OD. For the same molecule, the OD450 in [13] amounted to 0.06 OD; in [14], 2.7 OD; in experiment [15], 2.85 OD; in experiment [16] it was 2.67 OD.

B5: S009-F7.48.1 (antibody, human IgG1, kappa, V domains shown)
VH: QVQLQQPGTELVKPGASVKLSCKASGYTFTSYWMHWVKQRPGQGLEWIGNINPSNGGTNNNENFKSKATLTVDTSSSTAYMQLSSLTSEDSAVYYCVRNGYHGYWYFDVWGTGTTVTVSS
VL: DIVMTQSQKFMSTSVGDRVSVTCKASQNVGTNVAWYQQQPGQSPKALIYSASYRYSGVPDRFTGSVSGTDFTLTISNVQSEDLAEYFCQQYNSYPLTFGGGTKLEIKR
notes: as for B1
As for B5, the OD450 was 0.07 OD in experiment [1]; 0.05 OD in experiment [2]; 0.05 OD in [3]; 0.05 OD in experiment [4]; 2.69 OD in [5]; 0.05 OD in experiment [6]. The OD450 was 0.06 OD in [7]; 0.08 OD in [8]; 0.09 OD in experiment [9]; 0.05 OD in [10]; 0.26 OD in experiment [11]; 0.06 OD in experiment [12]. Moreover, the OD450 was 0.05 OD in [13], 0.94 OD in experiment [14], 2.05 OD in experiment [15] and 2.43 OD in [16].

B6: S009-F7.44.20 (antibody, human IgG1, kappa, V domains shown)
VH: EVQLQQSGPELVKPGASVKIPCKASGYTFTDYNMDWVKQSHGKSLEWIGDINPSTGGTIYNQKFNGKATLTEDKSASTVYMEFRSLTSDDTAVYYCARRRIGTGYFDVWGTGTTVTVSS
VL: QIVLTQSPALMSASPGEKVTLTCSASSSVISSYLSWYQQKPGSSPKLLIYRTSNLASGVPARFSGSGSGTSYSLTISSMEAEDAASYFCHQWSSFPYTFGGGTKLEIKR
notes: as for B1
Turning to B6, the OD450 in [1] came to 0.06 OD; in experiment [2] it was 0.05 OD; in experiment [3] it was 0.05 OD; in [4], 0.05 OD; in experiment [5] it was 2.91 OD; in [6], 0.05 OD. The OD450 turned out to be 0.06 OD in experiment [7]; 0.27 OD in experiment [8]; 0.1 OD in experiment [9]; 0.1 OD in [10]; 0.9 OD in experiment [11]; 0.06 OD in [12]. In addition, the OD450 in [13] turned out to be 0.05 OD; in [14], 2.2 OD; in experiment [15], 2.46 OD; in experiment [16], 2.48 OD.

B7: S009-F7.61.21 (antibody, human IgG1, kappa, V domains shown)
VH: DVQLQQSGPELVEPGASVRIPCKAAGHTFTDYNVDWVKQSHGQSLEWIGDVNPNTDGAIYNQKFEGKATLTVDTSSSTAYMELRSLTSEDTAVYFCARRRLGQGGFDSWGQGTTLTVSS
VL: QVVLTQSPAIMSASPGEKVTLTCGASSSLISKYLYWYQQKPGSSPKLWIYSTSNLASGVPARFSGSGSGTSYSLTISSMEAEDAASYFCHQWSSYPYTFGGGTKVEIKR
notes: as for B1
Regarding B7, the OD450 in experiment [1] stood at 0.06 OD; in [2], 0.05 OD; in experiment [3] it was 0.05 OD; in experiment [4], 0.05 OD; in [5], 2.61 OD; in experiment [6], 0.05 OD. Moreover, the OD450 in experiment [7] was found to be 0.06 OD; in experiment [8], 0.06 OD; in [9] it was 0.09 OD; in experiment [10] it was 0.05 OD; in [11], 0.17 OD; in experiment [12] it was 0.07 OD. Also, the OD450 in [13] was 0.05 OD; in [14], 0.8 OD; in [15], 2.17 OD; in [16] it was 2.39 OD.

B8: S009-F7.65.13 (antibody, human IgG1, kappa, V domains shown)
VH: EVQLQQSGPELVKPGTSVKILCKASGDTFTAYNMDWVKQRHGQSLEWIGDINPNTDSTIYNQKFEGKAILTVDKSSSTAYMELRSLTSEDTAVYYCARRKLGRGYFDYWGQGTTLTVSS
VL: QIVLTQSPAIMSASPGEKVTMTCSVNLSVRYIYWYQQKPGSSPRLLIHDTSNLASGVPVRFSGSGSGTSYSLTISRMEAEDAATYYCQQWSSFPYTFGGGTKLEIKR
notes: as for B1
For the molecule B8, the OD450 in experiment [1] is 0.05 OD; in experiment [2], 0.05 OD; in experiment [3], 0.05 OD; in experiment [4], 0.05 OD; in experiment [5], 2.63 OD; in experiment [6], 0.05 OD. Also, the OD450 in experiment [7] is 0.07 OD; in experiment [8], 0.14 OD; in experiment [9] it was 0.1 OD; in experiment [10], 0.07 OD; in experiment [11], 0.35 OD; in experiment [12], 0.07 OD. Besides, the OD450 turned out to be 0.05 OD in experiment [13], 1.3 OD in experiment [14], 2.39 OD in experiment [15] and 2.34 OD in experiment [16].
